Data set [1] concerns the target T1, VvABI5-HIS (grape vine, UniProt F6HQA3 1-409).
T1 sequence: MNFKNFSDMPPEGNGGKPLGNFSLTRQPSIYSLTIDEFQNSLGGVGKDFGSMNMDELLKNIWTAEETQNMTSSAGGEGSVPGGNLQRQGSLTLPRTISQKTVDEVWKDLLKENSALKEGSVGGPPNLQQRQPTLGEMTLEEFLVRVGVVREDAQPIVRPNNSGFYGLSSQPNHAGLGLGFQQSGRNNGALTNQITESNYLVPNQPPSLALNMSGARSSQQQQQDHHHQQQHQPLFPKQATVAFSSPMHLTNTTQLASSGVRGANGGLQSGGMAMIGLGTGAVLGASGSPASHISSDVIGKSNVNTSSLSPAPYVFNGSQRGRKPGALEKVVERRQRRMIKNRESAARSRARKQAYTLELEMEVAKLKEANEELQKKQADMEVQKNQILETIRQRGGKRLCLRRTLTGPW
Nature of the data set: EMSA; EMSA: 2 ul of 5x buffer (50% glycerol, 50 mM MgCl2, 5 mM EDTA, 10 mM DTT, 500 mM KCl, 250 mM HEPES pH 7.4) in 10 ul, i.e. 1x = 10% glycerol, 10 mM MgCl2, 1 mM EDTA, 2 mM DTT, 100 mM KCl, 50 mM HEPES; 1 ul of 0.05 uM biotin probe; 24 C, 20 min; 6% native gel, 0.5x TBE. Particulars: protein: recombinant; tags: His (pET32a); label: biotin; blunt. (In EMSA bound probe runs differently from free probe, usually more slowly.)

Data set [2] addresses T2, VvABF2-HIS (grape vine, UniProt F6H1D1 1-447).
T2 sequence: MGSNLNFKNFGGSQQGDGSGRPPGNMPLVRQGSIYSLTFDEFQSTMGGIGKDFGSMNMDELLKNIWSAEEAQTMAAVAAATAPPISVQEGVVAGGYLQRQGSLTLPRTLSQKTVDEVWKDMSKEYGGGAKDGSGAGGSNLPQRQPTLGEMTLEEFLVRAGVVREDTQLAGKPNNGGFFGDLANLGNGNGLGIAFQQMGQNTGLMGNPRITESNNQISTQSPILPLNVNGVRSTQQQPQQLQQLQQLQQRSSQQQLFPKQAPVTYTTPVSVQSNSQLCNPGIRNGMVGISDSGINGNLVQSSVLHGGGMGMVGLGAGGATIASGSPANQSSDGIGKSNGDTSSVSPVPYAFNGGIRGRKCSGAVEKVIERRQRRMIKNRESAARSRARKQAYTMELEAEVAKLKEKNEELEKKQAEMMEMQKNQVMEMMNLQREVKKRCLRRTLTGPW
Described as above. To be noted: protein: recombinant; tags: His (pET32a); label: biotin; blunt.

For data set [3], the target named is T1, VvABI5-HIS. As to the kind of experiment: competition; 100-fold unlabeled vs W37-P2; EMSA: 2 ul of 5x buffer (50% glycerol, 50 mM MgCl2, 5 mM EDTA, 10 mM DTT, 500 mM KCl, 250 mM HEPES pH 7.4) in 10 ul, i.e. 1x = 10% glycerol, 10 mM MgCl2, 1 mM EDTA, 2 mM DTT, 100 mM KCl, 50 mM HEPES; 1 ul of 0.05 uM biotin probe; 24 C, 20 min; 6% native gel, 0.5x TBE. To be noted: protein: recombinant; tags: His (pET32a); blunt.

For data set [4], the target named is T2, VvABF2-HIS. The data set is described as above. Particulars: protein: recombinant; tags: His (pET32a); blunt.

Where a chain is given by its changes, count along the chain named.

B1: W37-P2 (dsDNA)
DNA 1: TCCAAATGCTTTCACGTAATTTCATTTGTT
DNA 2: AACAAATGAAATTACGTGAAAGCATTTGGA
In the case of B1, the binding result with VvABI5-HIS [1] and in the data set with VvABF2-HIS [2] was “binds” throughout.

B2: W37-mP2 (dsDNA)
DNA 1: B1 DNA 1 with C13A, G16A, A18G
DNA 2: B1 DNA 2 with T13C, C15T, G18T
As to B2, the binding result with VvABI5-HIS [3] and with VvABF2-HIS [4] was “no binding” throughout.

B3: W37-P1 (dsDNA)
DNA 1: CTCTCTCCCACGTGCCGACCTCACACGTGTTAGCCTCAT
DNA 2: ATGAGGCTAACACGTGTGAGGTCGGCACGTGGGAGAGAG
Take B3: the binding result in the data set with VvABI5-HIS [1] and with VvABF2-HIS [2] was “no binding” throughout.

(Values after PMC9245421, “The VvWRKY37 Regulates Bud Break in Grape Vine Through ABA-Mediated Signaling Pathways”.)
